T1: hTEM1-SpyC (human TEM1 extracellular domain fused to SpyCatcher) (UniProt Q9HCU0 18-687, covalently bound to biotinylated SpyTag peptide (bSpyT))
T1 chain: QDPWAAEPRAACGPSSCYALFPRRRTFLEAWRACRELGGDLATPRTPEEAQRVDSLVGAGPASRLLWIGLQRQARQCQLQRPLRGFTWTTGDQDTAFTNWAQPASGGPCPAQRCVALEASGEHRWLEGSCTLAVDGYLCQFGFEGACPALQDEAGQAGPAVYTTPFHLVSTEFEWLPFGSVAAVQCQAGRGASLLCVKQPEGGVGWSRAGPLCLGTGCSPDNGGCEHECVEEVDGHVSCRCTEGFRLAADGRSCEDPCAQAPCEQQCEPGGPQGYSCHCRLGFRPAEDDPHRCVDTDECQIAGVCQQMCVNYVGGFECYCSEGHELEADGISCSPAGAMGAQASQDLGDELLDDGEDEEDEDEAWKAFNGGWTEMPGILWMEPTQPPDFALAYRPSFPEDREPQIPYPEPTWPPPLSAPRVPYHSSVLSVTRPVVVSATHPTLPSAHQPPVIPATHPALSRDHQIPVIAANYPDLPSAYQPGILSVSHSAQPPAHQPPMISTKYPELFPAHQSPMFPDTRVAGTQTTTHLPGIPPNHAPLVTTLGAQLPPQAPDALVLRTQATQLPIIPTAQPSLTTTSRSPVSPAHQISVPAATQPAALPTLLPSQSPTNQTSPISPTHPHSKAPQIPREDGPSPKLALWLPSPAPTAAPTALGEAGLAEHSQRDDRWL

B1: hTEM1-SpyC (other)
chain: T1 chain
modifications: covalently bound to biotinylated SpyTag peptide (bSpyT)
B2: 1C1mut BiTE (1C1mut scFv fused to an scFv derived from anti-CD3 clone UCHT1) (bispecific antibody, V domains shown)
VH: QVQLVQSGAEVKKPGSSVKVSCKASGGTFSSYAISWVRQAPGQGLEWMGGIIPIFGTANYAQKFQGRVTITADKSTSTAYMELSSLRSEDTAVYYCASLISYYGDPTGFDYWGQGTLVTVSS
VL: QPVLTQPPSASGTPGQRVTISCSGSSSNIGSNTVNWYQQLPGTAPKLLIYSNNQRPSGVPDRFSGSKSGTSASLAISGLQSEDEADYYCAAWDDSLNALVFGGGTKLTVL

Columns and labels:
1C1 BiTE = assay: SPR; BiTE analyte, hTEM1-SpyC immobilized
[1] = biological target: T1, hTEM1-SpyC (human TEM1 extracellular …); assay: SPR; BiTE analyte, hTEM1-SpyC immobilized

Binder | Kd (1C1 BiTE) | Kd [1]
B1 | ~68 nM | –
B2 | – | ~1 nM

Reference: patent US20220227872A1 (published 2022)
